The values below come from patent US20160228546A1 (CYTOMX THERAPEUTICS, published 2016).

What is called Kd is the equilibrium constant for the complex coming apart. High values mean a looser complex, low ones a tighter complex.

The chains are these.
B1: JS306 (peptide)
peptide: PCSEWQSMVQPRCYYGG
B2: JS1827 (peptide)
peptide: PCSAWQSMVEQRCYFG
B3: JS1829 (peptide)
peptide: PCSKWESMVLQSCYFG
B4: JS1825 (peptide)
peptide: SCTAWQSMVEQRCYFG
B5: JS315 (peptide)
peptide: GAMACYNIFEYWCSAMK
notes: also called 315MM
B6: JS313 (peptide)
peptide: GVGLCYTILEQWCEMGR
notes: also called 313MM
B7: JS283 (peptide)
peptide: ATAVWNSMVKQSCYMQG
notes: also called 283MM
B8: JS292 (peptide)
peptide: GHGMCYTILEDHCDRVR
notes: also called 292MM
B9: JS311 (peptide)
peptide: VHAWEQLVIQELYHC
notes: also called 311MM

The target in the first test is T1, anti-VEGF IgG antibody (DyLight-labelled in the FACS analyses.).
T1 construct: It was DyLight-labelled in the FACS analysis; also called anti-VEGF antibody; DyLight labeled anti-VEGF
T1 sequence (VH, as listed by the source limits assumed, chain 1 of 2): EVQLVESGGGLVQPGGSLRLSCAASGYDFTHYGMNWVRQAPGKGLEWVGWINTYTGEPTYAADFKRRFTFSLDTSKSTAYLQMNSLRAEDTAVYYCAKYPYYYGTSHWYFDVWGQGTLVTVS
T1 sequence (VL, as listed by the source limits assumed, chain 2 of 2): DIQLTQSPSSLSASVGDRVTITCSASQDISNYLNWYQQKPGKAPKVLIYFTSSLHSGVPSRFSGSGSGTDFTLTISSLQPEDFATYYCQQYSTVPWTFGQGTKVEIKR
Kind of test: method not stated.
The molecule B1 yielded a dissociation constant (Kd) of more than 600 nM.

For the next test, the target named is T1, anti-VEGF IgG antibody. Description: FACS of eCPX3.0 clones at 3 concentrations of DyLight labeled anti-VEGF.
In the case of B2, the “fold higher affinity than 306P” value is not below 10 fold.
For the molecule B3, the “fold higher affinity than 306P” value is not below 10 fold.
B4: the “fold higher affinity than 306P” value is not below 10 fold.

The target of the next test is T2, anti-VEGF scFv AB.
T2 construct: VL-linker-VH designed from ranibizumab; also called anti-VECF scFv
T2 sequence (scFv, as listed by the source): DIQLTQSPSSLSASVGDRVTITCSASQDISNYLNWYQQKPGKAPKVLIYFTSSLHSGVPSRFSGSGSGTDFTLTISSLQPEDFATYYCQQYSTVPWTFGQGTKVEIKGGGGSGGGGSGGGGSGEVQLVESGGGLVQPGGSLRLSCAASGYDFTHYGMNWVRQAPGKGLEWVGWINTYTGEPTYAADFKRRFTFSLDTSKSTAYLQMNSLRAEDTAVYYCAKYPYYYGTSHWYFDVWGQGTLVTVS
Description: FACS, peptide displayed on E. coli. Background: In flow cytometry, cells or beads pass a laser one at a time.
B5: the binding result is reported as “binds”.
Take B6: the binding result is given as “binds”.
The same measure, in the same setting: in the case of B7 it was “binds”; in that of B8, “binds”.
In the case of B9, the binding result is “binds”.
